Results published in article PMC6343935.

Biological target: Taggert virus (TAGV) viral ovarian tumor domain protease (vOTU) (Taggert virus (TAGV))
Test: ITC

For “ubiquitin (Ub), wild type (from UniProt P0CG48 1-76) (natural protein)”, the dH was -4.68 kcal/mol and the stoichiometry N was 1.34 sites.
